Measured values: patent publication US20260028391A1
Substitutions are numbered along the chain they refer to. Several values for one entry are separate records, joined by “and”; a condition that tells them apart may be missing. Equal entries are not always repeated.

B1: MPK15 (antibody, human IgG1, V domains shown)
VH: EVQLVESGGGLVKPGGSLRLSCTVSGITFSDAWMTWVRQAPGKGLEWVGRIKRKVDGETADYAPSVKGRFTISRDDSKSTLYLQMNSLKTEDTGLYYCLTTWSDQFWGQGTLVTVSS
VL: QSVVTQEPSLTVSPGGTVTLTCDSSSGAVTRGHYPFWFQQKPGQVPRTLIYDTSKKHSWTPARFSGSLLGDKAVLTLSGAQPEDEADYYCLLTYSGVRVFGGGTKLTVL
B2: MPK104-v1.1-rIgG1m17,1-LS (antibody, V domains shown)
VH: QVQLVESGGGLVKPGGSLRLSCAASGFTIDGYGMNWVRQAPGKGLEWVSSISASSNYIYYADSMKGRFTISRDNGKNSLYLQMHSLRVEDTGVYYCARAPLEPPYFDLWGRGTLVTVSS
VL: QSVLTQPPSVSGAPGQRVTISCSGGSSNIGAGYDVHWYQQVPGKGPKVLIYGNNNRPSGVPDRFSGSNFGASASLAITGLQADDEADYFCQSYDRRLGGPVFGGGTKLTVL
B3: MPK104-rIgG1-LS (antibody, V domains shown)
VH: B2 VH with Q1E
VL: B2 VL
B4: MPK104-v1.3-rIgG1m17,1-LS (antibody, V domains shown)
VH: B2 VH
VL: B2 VL with N54T, D83E
B5: MPK77-rIgG1-LS (antibody, V domains shown)
VH: EVQLVESGGGLVKPGGSLRLSCAASKSFSGYYMIWIRQAPGRGLEWIADISGSSTYTDYADSVKGRFTISRDNTRNTLYLQMNSLRPEDTAVYYCATEQVPSPGPFDLWGPGTLVTVSS
VL: QSVLTQPPSVSGAPGQRVIISCTGSSSNIGAGYDVHWYQQFPGTSPKLLIYRNTNRPSGVPDRFSGFKSGASAALAITGLQAEDEADYYCQSYDRSLSGWAFGGGTKVTVL
B6: MPK190-v1.1-rIgG1m17,1-LS (antibody, V domains shown)
VH: QVQLVESGGGLVKPGGSLTLSCAASGFSISGYGMNWVRQAPGRGLEWVASISASSTYIYYADSMKGRFTISRDNGKTSLYLQMKSLRAEDTAVYYCARAPIEPPYFDLWGRGTLVTVSS
VL: QSVLTQPPSVSGAPGQRVTISCTGSNSNIGAGYDVHWYQHLPGKAPKVLIYGNNNRPSVVPDRFSGSNSGASASLAISGLQAEDEADYFCQSYDRRLSGPIFGGGTKLTVL
B7: MPK190-rIgG1-LS (antibody, V domains shown)
VH: B6 VH with Q1E
VL: B6 VL
B8: MPK190-rFab (Fab, V domains shown)
VH: B6 VH with Q1E
VL: B6 VL
B9: MPH12-rIgG1-LS (antibody, V domains shown)
VH: QVQLVESGGGLVKPGGSLRLSCVASGFTFSGFYMKWIRQAPGKGLEWVSSISASGSYTNYADSVEGRFTVSRDNAKNSLFLLMSSLRAEDTAVYYCARGDSYCGASACHGEFFHKWGQGTLVTVSS
VL: QSVLTQPPSVSGAPGQRVTISCTGSDSNIGADFDVHWYQQLPGTAPKLLIYGNINRPSGVPDRFSGSRSGTSAFLAITRLQAEDEADYYCQSYDRSLHYVFGAGTKVTVL

Key:
[1] = target: fusion glycoprotein of Human metapneumovirus-TN/96-213 (BEI NR-22243) (human metapneumovirus TN/96-213); assay: cell-based or functional assay
[2] = target: fusion glycoprotein of Human Metapneumovirus-GFP CAN97-83 (Vira Tree M121) (human metapneumovirus CAN97-83) (UniProt Q6WB98); assay: cell-based or functional assay
[3] = target: fusion glycoprotein of the MPV D280 used in the neutralization assay of Example 3 (metapneumovirus (strain not stated)); assay: cell-based or functional assay
[4] = target: MPV fusion glycoprotein MPV-F D280 (metapneumovirus (strain not stated)); assay: SPR; sensors loaded with F protein, mAb in solution
[5] = target: MPV fusion glycoprotein MPV-F N280 (metapneumovirus (strain not stated)); assay: as above
[6] = target: MPV fusion glycoprotein MPV-F D280 (metapneumovirus (strain not stated)); assay: SPR; sensors loaded with MPV-F, mAb in solution (Experiment 3)
[7] = target: MPV fusion glycoprotein MPV-F N280 (metapneumovirus (strain not stated)); assay: as above
[8] = target: MPV fusion glycoprotein with the D280N mutation (MPV-F N280), recombinant protein loaded on sensors (metapneumovirus (MPV), strain not stated); assay: same manner as Experiment 1, RUN10, MPV-F D280 or MPV-F N280 on the sensors (Example 6, Experiment 3)
[9] = target: fusion glycoprotein (F) of the MPV used in the neutralization of Table 34 (metapneumovirus); assay: cell-based or functional assay
[10] = target: RSV fusion glycoprotein (RSV-F) of the RSV used in the neutralization of Table 33 (respiratory syncytial virus, strain not stated); assay: cell-based or functional assay
[11] = target: MPV F D280N mutant expressed on transfected Expi293F cells (metapneumovirus (MPV)); assay: flow cytometry, transfected Expi293F cells, fixed and permeabilised
[12] = target: MPV F WT expressed on transfected Expi293F cells (metapneumovirus (MPV)); assay: as above
[13] = target: biot-MPV-F D280N (metapneumovirus (MPV)); assay: BLI, SA sensor loaded with biot-MPV-F D280N (sheet title 'MPV-G D280N'; head of the value column printed 'MPV-F', not 'KD (M)'), mAb 5 ug/ml, 4 min association, 6 min dissociation
[14] = target: biot-MPV-F wt (metapneumovirus (MPV)); assay: BLI, SA sensor loaded with biot-MPV-F wt, mAb 5 ug/ml, 4 min association, 6 min dissociation
[15] = target: biot-RSV-F wt (respiratory syncytial virus (RSV)); assay: BLI (Octet), biotinylated F on SA sensors, mAb 5 µg/ml
[16] = target: biot-MPV-F wt (metapneumovirus (MPV)); assay: as above
[17] = target: biot-MPV-F D280N (metapneumovirus (MPV)); assay: as above
[18] = target: biot-RSV-F wt (respiratory syncytial virus (RSV)); assay: BLI, SA sensor loaded with biot-RSV-F wt, mAb 5 ug/ml, 4 min association, 6 min dissociation
[19] = target: biot-MPV-F D280N (metapneumovirus (MPV)); assay: BLI, SA sensor loaded with biot-MPV-F D280N (sheet title 'MPV-G D280N'), mAb 5 ug/ml, 4 min association, 6 min dissociation
[20] = target: biot-RSV-F wt (respiratory syncytial virus (RSV)); assay: BLI (Octet), biotinylated F on SA sensors, mAb 5 µg/ml; forced deamidation sample, day 0
[21] = target: biot-MPV-F wt (metapneumovirus (MPV)); assay: as above
[22] = target: biot-MPV-F D280N (metapneumovirus (MPV)); assay: as above
[23] = target: biot-RSV-F wt (respiratory syncytial virus (RSV)); assay: BLI (Octet), biotinylated F on SA sensors, mAb 5 µg/ml; batch KYT
[24] = target: biot-MPV-F wt (metapneumovirus (MPV)); assay: as above
[25] = target: biot-MPV-F D280N (metapneumovirus (MPV)); assay: as above
[26] = target: biot-RSV-F wt (respiratory syncytial virus (RSV)); assay: BLI (Octet), biotinylated F on SA sensors, mAb 5 µg/ml; forced deamidation sample, day 7 at 40 °C
[27] = target: biot-MPV-F wt (metapneumovirus (MPV)); assay: as above
[28] = target: biot-MPV-F D280N (metapneumovirus (MPV)); assay: as above
[29] = target: biot-RSV-F wt (respiratory syncytial virus (RSV)); assay: BLI (Octet), biotinylated F on SA sensors, mAb 5 µg/ml; forced deamidation sample, day 13 at 40 °C
[30] = target: biot-MPV-F wt (metapneumovirus (MPV)); assay: as above
[31] = target: biot-MPV-F D280N (metapneumovirus (MPV)); assay: as above
[32] = target: RSV-B B9320 F protein (RSV B, strain B9320); assay: cell-based or functional assay
[33] = target: RSV-B B18537/62 F protein (RSV B, strain B18537/62) (UniProt P13843); assay: cell-based or functional assay
[34] = target: RSV-long strain fusion glycoprotein (F) (RSV, long strain) (UniProt P12568); assay: cell-based or functional assay

Row | Binder | IC50 (ng/mL) in neutralization against MPV [9] [ng/mL] | IC50 (ng/mL) in neutralization against RSV [10] [ng/mL] | Kd [13] [nM] | Kd [14] [pM] | Kd [15] [nM] | Kd [16] [pM] | Kd [17] [nM] | Kd [18] [nM] | Kd [19] [nM] | further results
1 | B1 | – | – | – | – | – | – | – | – | – | MPV D280 Neutralization by MPK15 [1]: 15.3; MPV D280 Neutralization by MPK15 [2]: 5.8; MPV D280 Neutralization - IC50 [3]: 3.81 ng/mL and 3.4 ng/mL; Kd [4]: 0.0784 nM; Kd [5]: 0.0574 nM; Kd [6]: 0.071 nM; Kd [7]: 0.072 nM; Kd [8]: 0.073 nM
2 | B2 | 1.36 | 6.61 | 0.497 | < 1 | – | – | – | – | – | Binding (FACS) relative to parental mAb MPK104-v1.1 [11]: 1; Binding (FACS) relative to parental mAb MPK104-v1.1 [12]: 1
3 | B3 | – | – | 0.472 | < 1 | 0.306 | < 1 | 0.391 | 0.0373 | – | –
4 | B4 | 1.16 | 4.8 | 0.49 | < 1 | – | < 1 | 0.37 | – | – | Binding (FACS) relative to parental mAb MPK104-v1.1 [11]: 1.1; Binding (FACS) relative to parental mAb MPK104-v1.1 [12]: 1
5 | B5 | – | – | – | < 1 | 0.00228 | < 1 | 0.394 | < 0.001 | 0.406 | –
6 | B6 | 0.705 | 5.8 | – | < 1 | – | < 1 | 0.362 | – | 0.402 | Binding (FACS) relative to parental mAb MPK190-v1.1 [11]: 1; Binding (FACS) relative to parental mAb MPK190-v1.1 [12]: 1
7 | B7 | – | – | – | < 1 | – | – | – | < 0.001 | 0.381 | Kd [20]: < 1 pM; Kd [21]: < 1 pM; Kd [22]: 0.441 nM; Kd [23]: 0.0539 nM; Kd [24]: < 1 pM; Kd [25]: 0.37 nM; Kd [26]: 0.128 nM; Kd [27]: 0.0159 nM; Kd [28]: 0.6 nM; Kd [29]: 0.304 nM; Kd [30]: 0.0577 nM; Kd [31]: 0.733 nM
8 | B8 | – | – | – | – | – | – | – | – | – | EC50, virus neutralization (Fab testing) [32]: 0.0325 nM; EC50, virus neutralization (Fab testing) [33]: 0.0633 nM; EC50, virus neutralization (Fab testing) [34]: 0.0979 nM
9 | B9 | 5.26 | 12.9 | – | – | 1.2 | < 1 | 1.01 | – | – | –
